Data on 22 sequences can be found in the Immune Epitope Database (IEDB).

A value given as a limit tells only on which side of the number the result lay.

One test addresses HLA-B*53:01. In words: IEDB peptide-MHC binding, purified MHC/competitive/radioactivity; filed as Kd, often an IC50 or EC50 that approximates it; ≥ and ≤ were set here for values at or beyond the usual limits of such assays. Particulars: source organism: Dengue virus 4 Philippines/H241/1956.
Test [1] addresses HLA-A*26:01. The description is as above.
The target of test [2] is HLA-B*58:01. The description is as above.
The target of test [3] is HLA-B*57:01. Described as above.
The next test has as its target HLA-A*32:01. The test is described as above. Particulars: source organism: Dengue virus 2 Jamaica/1409/1983.
The target of the next test is HLA-B*15:17. In words: IEDB peptide-MHC binding, purified MHC/direct/fluorescence; filed as Kd, often an IC50 or EC50 that approximates it; ≥ and ≤ were set here for values at or beyond the usual limits of such assays.
Test [4] concerns the target HLA-B*57:01. The test is described as above. Particulars: source organism: Vibrio cholerae.
In test [5] the target is HLA-B*58:01. Described as above.
In the next test the target is HLA-A*24:03. The description is as above.
In the next test the target is HLA-A*68:02. In words: IEDB peptide-MHC binding, purified MHC/competitive/radioactivity; filed as Kd, often an IC50 or EC50 that approximates it; ≥ and ≤ were set here for values at or beyond the usual limits of such assays. Particulars: source organism: Dengue virus 2 Jamaica/1409/1983.
In test [6] the target is HLA-A*02:01. In words: IEDB peptide-MHC binding, purified MHC/direct/fluorescence; filed as Kd, often an IC50 or EC50 that approximates it; ≥ and ≤ were set here for values at or beyond the usual limits of such assays.
A further test deals with HLA-A*11:01. The test is described as above.
Test [7] deals with HLA-A*69:01. Described as above.
Another test concerns the target HLA-B*07:02. The description is as above.
In test [8] the target is HLA-A*01:01. Described as above.
A further test concerns the target HLA-B*40:01. The test is described as above.
Test [9] addresses HLA-A*26:01. The description is as above.
Another test concerns the target HLA-A*31:01. Described as above.
For another test, the target named is HLA-A*03:01. The test is described as above.
For the next test, the target named is HLA-B*44:02. Described as above.
For the next test, the target named is HLA-B*08:01. The description is as above.
Another test addresses HLA-B*27:05. Described as above.
Test [10] concerns the target HLA-B*15:01. The test is described as above.
Test [11] concerns the target HLA-A*02:01. In words: IEDB peptide-MHC binding, purified MHC/competitive/fluorescence; filed as Kd, often an IC50 or EC50 that approximates it; ≥ and ≤ were set here for values at or beyond the usual limits of such assays.
Test [12] concerns the target HLA-A*69:01. The description is as above.
A further test concerns the target HLA-B*18:01. The test is described as above. Particulars: source organism: Macaca mulatta.
The target in another test is HLA-B*51:01. The test is described as above.
In the next test the target is HLA-B*27:03. The description is as above.
For test [13], the target named is HLA-A*26:01. Described as above.
The target of a further test is HLA-B*39:01. The description is as above.
The target in test [14] is HLA-B*57:01. The test is described as above. Particulars: source organism: Macaca mulatta.
For test [15], the target named is HLA-B*15:01. The test is described as above. Particulars: source organism: Macaca mulatta.
In the next test the target is HLA-B*46:01. The description is as above.
Another test addresses HLA-A*24:02. The test is described as follows: IEDB peptide-MHC binding, purified MHC/competitive/radioactivity; filed as Kd, often an IC50 or EC50 that approximates it; ≥ and ≤ were set here for values at or beyond the usual limits of such assays.
Test [16] deals with HLA-A*01:01. The test is described as above. Particulars: source organism: Dengue virus 1 Brazil/97-11/1997.
The target in the next test is HLA-A*23:01. The test is described as above. Particulars: source organism: Dengue virus 1 Brazil/97-11/1997.
The mark [17] stands for this setting: source organism: Dengue virus 4 Philippines/H241/1956.
Where [18] appears, read: source organism: Dengue virus 3 Martinique/1243/1999.
Where [19] appears, read: source organism: Dengue virus 2 Jamaica/1409/1983.
Setting [20] is: source organism: Dengue virus 3 Sri Lanka/1266/2000.
[21] abbreviates: source organism: Vibrio cholerae.
Where [22] appears, read: source organism: Dengue virus 1 Brazil/97-11/1997.
Setting [23] is: source organism: Salmonella enterica subsp. enterica serovar Typhimurium.
[24] abbreviates: source organism: Salmonella enterica subsp. enterica serovar Typhi.
The mark [25] stands for this setting: source organism: Macaca mulatta.
[26] abbreviates: source organism: Yersinia pestis.
Setting [27] is: source organism: Dengue virus 1 Singapore/S275/1990.

On to FVIDNVHTW, for which the results for the Kd with HLA-B*53:01, with HLA-A*26:01 [1] (setting [17]) and in the test with HLA-B*58:01 [2] (setting [17]) were 1.22 nM, 54.8 nM and 17.7 nM, respectively.
Turning to GAVFTEENQW, in the test with HLA-B*58:01 [2] (setting [18]), the Kd is 22.6 nM.
On to IGLTSRATW, for which the Kd with HLA-B*57:01 [3] (setting [19]) was determined as 6.87 nM; with HLA-B*58:01 [2] (setting [19]), 6.11 nM.
In the case of ILIGVIITW, the results for the equilibrium dissociation constant (Kd) in the test with HLA-B*57:01 [3] (setting [19]), with HLA-A*32:01 and with HLA-B*58:01 [2] (setting [19]) were 352 nM, at least 23500 nM and 1530 nM, respectively.
With KAAVEDEEF, the Kd was determined as 1670 nM with HLA-B*57:01 [3] (setting [20]) and 61.9 nM in the test with HLA-B*58:01 [2] (setting [20]).
With KAYSEAETF, the Kd in the test with HLA-B*15:17 (setting [21]) amounted to 21.5 nM; with HLA-B*57:01 [4], 173 nM; with HLA-B*58:01 [5] (setting [21]) it was 23.8 nM.
Take KGKRIEPSW: the Kd with HLA-B*57:01 [3] (setting [19]) stood at 13.1 nM; with HLA-B*58:01 [2] (setting [19]), 11.2 nM.
With LSSKPEFCIK, the dissociation constant Kd in the test with HLA-B*58:01 [2] (setting [17]) came to 10600 nM.
For LSSLLKNDVP, the Kd turned out to be 7260 nM in the test with HLA-B*57:01 [3] (setting [22]) and 819 nM with HLA-B*58:01 [2] (setting [22]).
In the case of LTSKELMMAT, the Kd with HLA-B*57:01 [3] (setting [19]) was at least 29800 nM; in the test with HLA-B*58:01 [2] (setting [19]), 1130 nM.
In the case of LYILGLFKF, in the test with HLA-A*24:03 (source organism: Orthohantavirus hantanense), the Kd worked out at 115 nM.
With NASGNIVSSV, the Kd is 464 nM in the test with HLA-B*57:01 [3] (setting [19]), 112 nM in the test with HLA-B*58:01 [2] (setting [19]) and 48 nM with HLA-A*68:02.
As for NSDYMMWVG, the Kd in the test with HLA-A*02:01 [6] (setting [23]), in the test with HLA-A*11:01 (setting [23]), with HLA-A*69:01 [7] (setting [23]), with HLA-B*07:02 (setting [23]), with HLA-A*24:03 (setting [23]) and with HLA-A*01:01 [8] (setting [23]) was at least 20000 nM in each case. Also, the Kd with HLA-B*40:01 (setting [23]), with HLA-A*26:01 [9] (setting [23]), with HLA-A*31:01 (setting [23]), with HLA-A*03:01 (setting [23]), with HLA-B*44:02 (setting [23]) and with HLA-B*08:01 (setting [23]) was at least 20000 nM in each case. Also, the Kd with HLA-B*27:05 (setting [23]), with HLA-B*15:01 [10] (setting [23]) and with HLA-B*58:01 [5] (setting [23]) was at least 20000 nM each time.
For PSEDEQQGH, the Kd with HLA-A*02:01 [6] (setting [24]), with HLA-A*11:01 (setting [24]), with HLA-A*69:01 [7] (setting [24]), with HLA-B*07:02 (setting [24]), in the test with HLA-A*24:03 (setting [24]) and in the test with HLA-A*01:01 [8] (setting [24]) was at least 20000 nM each time. Besides, the Kd with HLA-B*40:01 (setting [24]), with HLA-A*26:01 [9] (setting [24]), with HLA-A*31:01 (setting [24]), with HLA-A*03:01 (setting [24]), with HLA-B*44:02 (setting [24]) and with HLA-B*08:01 (setting [24]) was at least 20000 nM throughout. Further, the Kd with HLA-B*27:05 (setting [24]), with HLA-B*15:01 [10] (setting [24]) and with HLA-B*58:01 [5] (setting [24]) was at least 20000 nM in each case.
With RVLNLVENW, the Kd stood at 2.43 nM with HLA-B*57:01 [3] (setting [19]), 21.3 nM with HLA-A*32:01 and 1.34 nM in the test with HLA-B*58:01 [2] (setting [19]).
In the case of SAEVVTLWY, the Kd with HLA-A*01:01 [8] (source organism: Pomacentrus moluccensis) is 1.6 nM; with HLA-A*02:01 [11] (setting [25]), at least 20000 nM; with HLA-A*69:01 [12] (setting [25]), at least 20000 nM; with HLA-B*18:01, at least 20000 nM; with HLA-B*51:01 (setting [25]) it was at least 20000 nM; with HLA-B*27:03 (setting [25]) it was at least 20000 nM. Moreover, the Kd with HLA-A*26:01 [13] (setting [25]), in the test with HLA-B*39:01 (setting [25]), in the test with HLA-B*57:01 [14], with HLA-B*15:01 [15] and in the test with HLA-B*46:01 (setting [25]) was at least 20000 nM throughout.
As for SASRAWNVWE, the Kd was 279 nM with HLA-B*57:01 [3] (setting [18]) and 53.9 nM with HLA-B*58:01 [2] (setting [18]).
Take TSDGFINGW: the Kd amounted to 251 nM in the test with HLA-B*15:17 (setting [26]) and 88 nM in the test with HLA-B*58:01 [5] (setting [26]).
In the case of VASAGISYKD, the Kd stood at 4690 nM with HLA-B*57:01 [3] (setting [17]) and 3920 nM with HLA-B*58:01 [2] (setting [17]).
VMASSVLLW: the dissociation constant Kd was 113 nM in the test with HLA-A*24:02 (setting [27]), 6.56 nM with HLA-B*57:01 [3] (setting [27]) and 1.28 nM in the test with HLA-B*58:01 [2] (setting [27]).
Take VTAKWLWGF: the Kd with HLA-A*24:02 (setting [22]) was found to be 241 nM; with HLA-A*01:01 [16], 13900 nM; in the test with HLA-A*26:01 [1] (setting [22]), 12800 nM; with HLA-A*23:01 it was 417 nM; with HLA-B*58:01 [2] (setting [22]) it was 59 nM.
For the sequence WSTIWRQLY, the Kd is 10 nM in the test with HLA-A*01:01 [8] (source organism: Mus musculus); at least 20000 nM in the test with HLA-A*02:01 [11] (source organism: Homo sapiens); at least 20000 nM with HLA-A*69:01 [12] (source organism: Homo sapiens); at least 20000 nM with HLA-B*51:01 (source organism: Homo sapiens); at least 20000 nM with HLA-B*27:03 (source organism: Homo sapiens); at least 20000 nM with HLA-A*26:01 [13] (source organism: Homo sapiens). The Kd in the test with HLA-B*39:01 (source organism: Homo sapiens) and with HLA-B*46:01 (source organism: Homo sapiens) was at least 20000 nM throughout.

One may read the Kd as a measure of binding affinity in units of concentration.
